Laboratory results reported in paper PMC7831379.

Biological target: pre-stabilized HIV-1 CA A14C/E45C/W184A/M185A hexamer (HIV-1)
Assay: crystal structure

“pre-stabilized HIV-1 CA A14C/E45C/W184A/M185A hexamer (natural protein)” showed a stoichiometry N of 6.
